1 substance from PMC3915414 can be followed below.

pKd: −log10 of the molar value.

Holding throughout (assay): solid-phase binding assay
For test [1], the target named is alpha-dystroglycan from dystrophin-deficient (mdx) mouse heart (mouse (endogenous in heart)) (UniProt Q62165).
Test [2] deals with alpha-dystroglycan from dystrophin/utrophin-deficient (dko) mouse heart (mouse (endogenous in heart)) (UniProt Q62165).
Test [3] addresses alpha-dystroglycan from wild-type (C57BL/10) mouse heart (mouse (endogenous in heart)) (UniProt Q62165).

By pKd is commonly meant −log10 of the Kd, conventionally taken in molar units. Higher therefore signals a small Kd. For “Engelbreth-Holm-Swarm (EHS) laminin (from UniProt P19137 25-3083; P02469 22-1786; P02468 34-1607) (complex)”, the pKd is 7.48 in test [1], 7.73 in test [2] and 7.67 in test [3].
